Laboratory results reported in the RNAGym collection of RNA variant scans (doi:10.7554/elife.80360).

B1: CPEB3 Ribozyme (parent)
chain: GGGGGCCACAGCAGAAGCGUUCACGUCGCGGCCCCUGUCAGAUUCUGGUGAAUCUGCGAAUUCUGCUGU

Variants of: B1
Test: self-cleavage, relative activity (ratio to wild type); higher = more cleavage; co-transcriptional

Compared with A8U U69C, A8U U69A is lower in self-cleavage: 1.06 for the first, 1.05 for the second.

C9A A15G and C9A A59G are the same in self-cleavage: 1.03 for the first, 1.03 for the second.

Compared with C9A A59C, A8U C45U is higher in self-cleavage: 0.854 for the first, 1.03 for the second.

Going from A8U G56U to A8U G56A, the self-cleavage falls from 0.972 to 0.957.

First: A8U A59C
Second: A8U A59U
The self-cleavage of the first is lower: 0.601 for the first, 0.799 for the second.

First: C9A A40C
Second: C9A A40U
The self-cleavage of the first is lower: 0.71 for the first, 0.969 for the second.

Compared with A8U G41U, A8U G41C is lower in self-cleavage: 0.877 for the first, 0.809 for the second.

First: A8U A52G
Second: A8U A52U
The self-cleavage of the first is higher: 1.03 for the first, 0.986 for the second.

Compared with A8U U21G, A8U U21C is higher in self-cleavage: 0.588 for the first, 0.846 for the second.

Compared with A8U C57G, A8U U62C is higher in self-cleavage: 0.272 for the first, 0.994 for the second.

Compared with A8U U46G, A8U U46C is lower in self-cleavage: 1.01 for the first, 0.998 for the second.

Compared with A8U U46A, A8U G58U is higher in self-cleavage: 1 for the first, 1.03 for the second.

First: A8U G58C
Second: A8U C24A
The self-cleavage of the first is higher: 0.988 for the first, 0.763 for the second.

First: A8U C24U
Second: A8U C24G
The self-cleavage of the first is higher: 0.713 for the first, 0.444 for the second.

Compared with A8U A60C, A8U A60G is higher in self-cleavage: 0.432 for the first, 0.939 for the second.

Compared with A8U A60U, A8U G14A is higher in self-cleavage: 0.457 for the first, 0.827 for the second.

Compared with A8U G14U, A8U G28C is lower in self-cleavage: 0.785 for the first, 0.101 for the second.

Compared with A8U C39G, A8U C39A is lower in self-cleavage: 0.988 for the first, 0.864 for the second.

First: A8U C63A
Second: A8G U64A
The self-cleavage of the first is higher: 0.891 for the first, 0.242 for the second.

Going from A8G U64C to A8U C32U, the self-cleavage rises from 0.361 to 0.944.

First: A8U C32G
Second: A8U C32A
The self-cleavage of the first is lower: 0.368 for the first, 0.877 for the second.

First: C9A A16U
Second: C9A A23U
The self-cleavage of the first is lower: 0.957 for the first, 1 for the second.

First: C9A A23G
Second: A8U U53C
The self-cleavage of the first is higher: 1.02 for the first, 0.901 for the second.

First: A8U U20G
Second: A8U U20A
The self-cleavage of the first is higher: 0.163 for the first, 0.116 for the second.

First: A8U U20C
Second: A8U G25A
The self-cleavage of the first is higher: 0.25 for the first, 0.179 for the second.

Going from A8U G25C to A8U U49G, the self-cleavage rises from 0.0896 to 1.02.

First: C9A A60G
Second: C9A A60C
The self-cleavage of the first is higher: 1.04 for the first, 0.364 for the second.

Going from C9A A60U to C9A C18A, the self-cleavage falls from 0.632 to 0.188.

First: C9A C18U
Second: C9A A42C
The self-cleavage of the first is lower: 0.919 for the first, 0.999 for the second.

C9A A51C and C9A A51G are the same in self-cleavage: 1.03 for the first, 1.03 for the second.

Compared with C9A A51U, A8U U36A is lower in self-cleavage: 1.04 for the first, 0.229 for the second.

First: A8U U36C
Second: A8U C35U
The self-cleavage of the first is lower: 0.887 for the first, 1.01 for the second.

Compared with A8U C35A, A8G U62C is lower in self-cleavage: 0.257 for the first, 0.253 for the second.

First: A8G U62A
Second: A8G U49A
The self-cleavage of the first is lower: 0.394 for the first, 0.938 for the second.

Going from A8G U49C to A8G U49G, the self-cleavage rises from 0.828 to 0.895.

Going from A8U C27A to A8U C27U, the self-cleavage falls from 0.615 to 0.294.

Compared with A8U C27G, C9A C27G is higher in self-cleavage: 0.163 for the first, 0.256 for the second.

Going from A8U G17U to A8U G17C, the self-cleavage falls from 0.491 to 0.141.

First: A8U G50C
Second: A8U G50A
The self-cleavage of the first is lower: 1 for the first, 1.03 for the second.

First: A8U C29U
Second: A8U C29G
The self-cleavage of the first is higher: 0.84 for the first, 0.183 for the second.

First: A8G U44C
Second: A8U C18A
The self-cleavage of the first is higher: 0.55 for the first, 0.177 for the second.

Going from A8U C18G to C9A C12G, the self-cleavage rises from 0.142 to 0.936.

First: C9A C12U
Second: A8U U61A
The self-cleavage of the first is higher: 1.02 for the first, 0.944 for the second.

First: A8U U61G
Second: A8U U38A
The self-cleavage of the first is higher: 0.959 for the first, 0.871 for the second.

Going from A8U U38G to A8U U38C, the self-cleavage rises from 0.221 to 1.01.

Compared with A8G U69G, A8U C12G is lower in self-cleavage: 1.04 for the first, 0.897 for the second.

Compared with A8U C12A, A8U A40U is higher in self-cleavage: 0.683 for the first, 0.781 for the second.

First: A8U A40C
Second: A8G U53G
The self-cleavage of the first is lower: 0.639 for the first, 0.646 for the second.

First: A8U G47U
Second: A8U G47C
The self-cleavage of the first is lower: 0.999 for the first, 1.03 for the second.

Compared with A8U G47A, A8U G68A is lower in self-cleavage: 1.01 for the first, 0.991 for the second.

Going from A8U G68U to A8U G68C, the self-cleavage falls from 1.03 to 1.02.

Compared with A8U C34A, A8U C34G is lower in self-cleavage: 0.854 for the first, 0.718 for the second.

Going from A8U C34U to A8U G37U, the self-cleavage falls from 0.985 to 0.221.

First: A8U G37A
Second: A8U G65U
The self-cleavage of the first is lower: 0.215 for the first, 0.768 for the second.

Compared with A8U G65C, A8G U61C is lower in self-cleavage: 0.644 for the first, 0.142 for the second.

First: A8G U61G
Second: A8U A42C
The self-cleavage of the first is lower: 0.284 for the first, 0.972 for the second.

First: A8U A42U
Second: A8U G30A
The self-cleavage of the first is higher: 0.995 for the first, 0.963 for the second.

Going from A8U G30C to A8U A15U, the self-cleavage rises from 0.849 to 0.882.

Going from A8U A15G to A8U G48A, the self-cleavage rises from 0.998 to 1.03.

Compared with A8U G48C, A8G U67G is lower in self-cleavage: 0.994 for the first, 0.64 for the second.

Going from A8G U67C to C9A A10U, the self-cleavage rises from 0.573 to 1.05.

First: A8U A13G
Second: A8U A13C
The self-cleavage of the first is higher: 1.02 for the first, 0.855 for the second.

First: A8U A51U
Second: A8U A51G
The self-cleavage of the first is lower: 0.999 for the first, 1 for the second.

First: A8U U64A
Second: A8U G31A
The self-cleavage of the first is higher: 0.969 for the first, 0.925 for the second.

Going from A8U G31C to A8U G31U, the self-cleavage rises from 0.247 to 0.806.

Going from A8G U46A to A8G U46C, the self-cleavage falls from 0.99 to 0.83.

Going from A8G U46G to A8U, the self-cleavage rises from 0.86 to 1.01.

Compared with C9A C24G, A8U C22G is lower in self-cleavage: 0.697 for the first, 0.133 for the second.

First: A8U C22U
Second: A8U C54U
The self-cleavage of the first is lower: 0.203 for the first, 1.03 for the second.

Going from A8U C54G to A8U C54A, the self-cleavage falls from 0.919 to 0.857.

Going from A8U G19A to A8G U55C, the self-cleavage rises from 0.198 to 0.282.

First: A8G U55G
Second: A8U A23U
The self-cleavage of the first is lower: 0.134 for the first, 1 for the second.

First: A8U A23G
Second: A8U U55G
The self-cleavage of the first is higher: 0.965 for the first, 0.823 for the second.

Compared with A8U U55C, A8U G11A is lower in self-cleavage: 0.912 for the first, 0.906 for the second.

Compared with A8U G11U, A8U U43A is lower in self-cleavage: 0.902 for the first, 0.899 for the second.

Compared with A8U U43C, A8U A10U is higher in self-cleavage: 0.951 for the first, 0.998 for the second.

Compared with A8U U26C, A8U U26G is higher in self-cleavage: 0.924 for the first, 0.97 for the second.

Compared with A8U U26A, A8U U44G is higher in self-cleavage: 0.893 for the first, 0.932 for the second.

Compared with A8U U44C, A8U C33G is lower in self-cleavage: 0.933 for the first, 0.685 for the second.

First: A8U C9G
Second: A8U C9U
The self-cleavage of the first is lower: 1.01 for the first, 1.02 for the second.

Compared with A8U U67G, A8U A16C is lower in self-cleavage: 1.03 for the first, 0.309 for the second.

First: A8U A16U
Second: A8U A16G
The self-cleavage of the first is lower: 0.867 for the first, 0.947 for the second.

Compared with C9A A13U, C9A A13G is higher in self-cleavage: 0.725 for the first, 0.901 for the second.

In the case of A8U C66G, the self-cleavage is reported as 0.826.
